Assay results published in patent publication US20250152742A1, “COMPOSITIONS AND METHODS FOR NEUROLOGICAL DISEASES” (Trames Bio, Inc., priority 2022, published 2025).

System: engineered chimeric receptor SEQ ID NO: 33 and its mutants (human α7-nAChR ligand binding domain / human GlyRα1 ion pore domain) in Lenti-X 293T cells
Experiment: YFP fluorescence quenching anion reporter plate reader assay (percent quench, EC50)
Assay type: cell-based
Settings: for YFP fluorescence quenching using CNL001 (percent quench): receptor named in row; for YFP fluorescence quenching using Varenicline, 3 nM var: ligand Varenicline 3 nM; for YFP fluorescence quenching using Varenicline, 30 nM var: ligand Varenicline 30 nM; for YFP fluorescence quenching using Varenicline, 300 nM var: ligand Varenicline 300 nM; for YFP fluorescence quenching using Varenicline, 500 nM var: ligand Varenicline 500 nM; for YFP fluorescence quenching using Varenicline, 1 uM var: ligand Varenicline 1 uM
Method in brief: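 Percent quench compares mean YFP signal over the final 10 s with the 15 s baseline before ligand, added in iodide-containing extracellular solution (pH 7.2). Cells were LX293T carrying a YFP anion reporter, transiently transfected with the channel construct; plates were preincubated 30 min at 37 °C.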

[1] = 1 nM CNL001, first column so headed
[2] = 1 nM CNL001, second column so headed
[3] = 10 nM CNL001, first column so headed
[4] = 10 nM CNL001, second column so headed
[5] = 50 nM CNL001, first column so headed
[6] = 50 nM CNL001, second column so headed
[7] = 100 nM CNL001, first column so headed
[8] = 100 nM CNL001, second column so headed
[9] = 1 uM CNL001, first column so headed
[10] = 1 uM CNL001, second column so headed

B1: CODA1138: engineered receptor: W77F, R101F, L131D in SEQ ID NO: 33 (protein)
chain: MRCSPGGVWLALAASLLHVSLQGEFQRKLYKELVKNYNPLERPVANDSQPLTVYFSLSLLQIMDVDEKNQVLTTNIFLQMSWTDHYLQWNVSEYPGVKTVFFPDGQIWKPDILLYNSADERFDATFHTNVDVNSSGHCQYLPPGIFKSSCPMDLKNFPMDVQTCKLKFGSWSYGGWSLDLQMQEADISGYIPNGEWDLVGIPGKRSERFYECCKEPYPDVTFTVTMRRRMGYYLIQMYIPSLLIVILSWISFWINMDAAPARVGLGITTVLTMTTQSSGSRASLPKVSYVKAIDIWMAVCLLFVFSALLEYAAVNFVSRQHKELLRFRRKRRHHKSPMLNLFQEDEAGEGRFNFSAYGMGPACLQAKDGISVKGANNSNTTNPPPAPSKSPEEMRKLFIQRAKKIDKISRIGFPMAFLIFNMFYWIIYKIVRREDVHNQ
modifications: synthetic sequence of chimeric LGIC
[1]
  YFP fluorescence quenching using CNL001 (percent quench): −6.175%
[2]
  YFP fluorescence quenching using CNL001 (percent quench): 5.89%
1 nM CNL002
  YFP fluorescence quenching (percent quench): −2.209%
[3]
  YFP fluorescence quenching using CNL001 (percent quench): −2.032%
[4]
  YFP fluorescence quenching using CNL001 (percent quench): 7.601%
10 nM CNL002
  YFP fluorescence quenching (percent quench): 43.044%
[5]
  YFP fluorescence quenching using CNL001 (percent quench): 9.263%
[6]
  YFP fluorescence quenching using CNL001 (percent quench): 4.423%
50 nM CNL002
  YFP fluorescence quenching (percent quench): 73.418%
50 nM abt (ABT-126)
  YFP fluorescence quenching using ABT-126 (percent quench): −11.71%
[7]
  YFP fluorescence quenching using CNL001 (percent quench): 24%
[8]
  YFP fluorescence quenching using CNL001 (percent quench): 30.448%
100 nM CNL002
  YFP fluorescence quenching (percent quench): 81.66%
100 nM abt (ABT-126)
  YFP fluorescence quenching using ABT-126 (percent quench): −5.13%
300 nM abt (ABT-126)
  YFP fluorescence quenching using ABT-126 (percent quench): 15.09%
[9]
  YFP fluorescence quenching using CNL001 (percent quench): 73.823%
[10]
  YFP fluorescence quenching using CNL001 (percent quench): 73.271%
1 uM CNL002
  YFP fluorescence quenching (percent quench): 81.69%
1 uM abt (ABT-126)
  YFP fluorescence quenching using ABT-126 (percent quench): 56.63%
10 uM abt (ABT-126)
  YFP fluorescence quenching using ABT-126 (percent quench): 75.93%
10 uM ach (acetylcholine)
  YFP fluorescence quenching (percent quench): −12.92%
30 uM ach (acetylcholine)
  YFP fluorescence quenching (percent quench): −15.36%
100 uM ach (acetylcholine)
  YFP fluorescence quenching (percent quench): −19.35%
300 uM ach (acetylcholine)
  YFP fluorescence quenching (percent quench): −14.79%
1 mM ach (acetylcholine)
  YFP fluorescence quenching (percent quench): 37.5%
3 mM ach (acetylcholine)
  YFP fluorescence quenching (percent quench): 61.73%
First column
  YFP fluorescence quenching using Varenicline, 3 nM var: 3.893
  YFP fluorescence quenching using Varenicline, 30 nM var: 0.972
  YFP fluorescence quenching using Varenicline, 300 nM var: 2.282
  YFP fluorescence quenching using Varenicline, 500 nM var: 3.637
  YFP fluorescence quenching using Varenicline, 1 uM var: −1.84
Second column
  YFP fluorescence quenching using Varenicline, 3 nM var: 1.107
  YFP fluorescence quenching using Varenicline, 30 nM var: 0.872
  YFP fluorescence quenching using Varenicline, 300 nM var: −0.288
  YFP fluorescence quenching using Varenicline, 500 nM var: −1.804
  YFP fluorescence quenching using Varenicline, 1 uM var: 6.36

B2: CODA1173: engineered receptor: S172D, Y210W in SEQ ID NO: 33 (protein)
chain: MRCSPGGVWLALAASLLHVSLQGEFQRKLYKELVKNYNPLERPVANDSQPLTVYFSLSLLQIMDVDEKNQVLTTNIWLQMSWTDHYLQWNVSEYPGVKTVRFPDGQIWKPDILLYNSADERFDATFHTNVLVNSSGHCQYLPPGIFKSSCPMDLKNFPMDVQTCKLKFGSWDYGGWSLDLQMQEADISGYIPNGEWDLVGIPGKRSERFWECCKEPYPDVTFTVTMRRRMGYYLIQMYIPSLLIVILSWISFWINMDAAPARVGLGITTVLTMTTQSSGSRASLPKVSYVKAIDIWMAVCLLFVFSALLEYAAVNFVSRQHKELLRFRRKRRHHKSPMLNLFQEDEAGEGRFNFSAYGMGPACLQAKDGISVKGANNSNTTNPPPAPSKSPEEMRKLFIQRAKKIDKISRIGFPMAFLIFNMFYWIIYKIVRREDVHNQ
modifications: synthetic sequence of chimeric LGIC
[1]
  YFP fluorescence quenching using CNL001 (percent quench): 16.321%
[2]
  YFP fluorescence quenching using CNL001 (percent quench): 30.264%
[3]
  YFP fluorescence quenching using CNL001 (percent quench): 61.978%
[4]
  YFP fluorescence quenching using CNL001 (percent quench): 65.343%
[5]
  YFP fluorescence quenching using CNL001 (percent quench): 73.006%
[6]
  YFP fluorescence quenching using CNL001 (percent quench): 74.903%
50 nM abt (ABT-126)
  YFP fluorescence quenching using ABT-126 (percent quench): 5.15%
[7]
  YFP fluorescence quenching using CNL001 (percent quench): 76%
[8]
  YFP fluorescence quenching using CNL001 (percent quench): 76.759%
100 nM CNL002
  YFP fluorescence quenching (percent quench): 70.15%
100 nM abt (ABT-126)
  YFP fluorescence quenching using ABT-126 (percent quench): 25.08%
300 nM abt (ABT-126)
  YFP fluorescence quenching using ABT-126 (percent quench): 66.86%
[9]
  YFP fluorescence quenching using CNL001 (percent quench): 76.928%
[10]
  YFP fluorescence quenching using CNL001 (percent quench): 76.619%
1 uM CNL002
  YFP fluorescence quenching (percent quench): 77.33%
1 uM abt (ABT-126)
  YFP fluorescence quenching using ABT-126 (percent quench): 66.94%
10 uM abt (ABT-126)
  YFP fluorescence quenching using ABT-126 (percent quench): 78.67%
1 mM ach (acetylcholine)
  YFP fluorescence quenching (percent quench): −6.12%
3 mM ach (acetylcholine)
  YFP fluorescence quenching (percent quench): 11.31%
First column
  YFP fluorescence quenching using Varenicline, 3 nM var: 9.211
  YFP fluorescence quenching using Varenicline, 30 nM var: 7.821
  YFP fluorescence quenching using Varenicline, 300 nM var: 6.933
  YFP fluorescence quenching using Varenicline, 500 nM var: 5.501
  YFP fluorescence quenching using Varenicline, 1 uM var: 7.174
Second column
  YFP fluorescence quenching using Varenicline, 3 nM var: 7.193
  YFP fluorescence quenching using Varenicline, 30 nM var: 9.078
  YFP fluorescence quenching using Varenicline, 300 nM var: 8.36
  YFP fluorescence quenching using Varenicline, 500 nM var: 7.04
  YFP fluorescence quenching using Varenicline, 1 uM var: 5.185

B3: CODA1157: engineered receptor: Q139E, S172D in SEQ ID NO: 33 (protein)
chain: MRCSPGGVWLALAASLLHVSLQGEFQRKLYKELVKNYNPLERPVANDSQPLTVYFSLSLLQIMDVDEKNQVLTTNIWLQMSWTDHYLQWNVSEYPGVKTVRFPDGQIWKPDILLYNSADERFDATFHTNVLVNSSGHCEYLPPGIFKSSCPMDLKNFPMDVQTCKLKFGSWDYGGWSLDLQMQEADISGYIPNGEWDLVGIPGKRSERFYECCKEPYPDVTFTVTMRRRMGYYLIQMYIPSLLIVILSWISFWINMDAAPARVGLGITTVLTMTTQSSGSRASLPKVSYVKAIDIWMAVCLLFVFSALLEYAAVNFVSRQHKELLRFRRKRRHHKSPMLNLFQEDEAGEGRFNFSAYGMGPACLQAKDGISVKGANNSNTTNPPPAPSKSPEEMRKLFIQRAKKIDKISRIGFPMAFLIFNMFYWIIYKIVRREDVHNQ
modifications: synthetic sequence of chimeric LGIC
[1]
  YFP fluorescence quenching using CNL001 (percent quench): 68.362%
[2]
  YFP fluorescence quenching using CNL001 (percent quench): 69.495%
[3]
  YFP fluorescence quenching using CNL001 (percent quench): 75.078%
[4]
  YFP fluorescence quenching using CNL001 (percent quench): 74.193%
[5]
  YFP fluorescence quenching using CNL001 (percent quench): 77.481%
[6]
  YFP fluorescence quenching using CNL001 (percent quench): 77.205%
50 nM abt (ABT-126)
  YFP fluorescence quenching using ABT-126 (percent quench): −26.77%
[7]
  YFP fluorescence quenching using CNL001 (percent quench): 77%
[8]
  YFP fluorescence quenching using CNL001 (percent quench): 77.042%
100 nM CNL002
  YFP fluorescence quenching (percent quench): 80.62%
100 nM abt (ABT-126)
  YFP fluorescence quenching using ABT-126 (percent quench): −24.64%
300 nM abt (ABT-126)
  YFP fluorescence quenching using ABT-126 (percent quench): −10.64%
[9]
  YFP fluorescence quenching using CNL001 (percent quench): 78.2%
[10]
  YFP fluorescence quenching using CNL001 (percent quench): 76.244%
1 uM CNL002
  YFP fluorescence quenching (percent quench): 81.32%
1 uM abt (ABT-126)
  YFP fluorescence quenching using ABT-126 (percent quench): 19.57%
10 uM abt (ABT-126)
  YFP fluorescence quenching using ABT-126 (percent quench): 55.64%
10 uM ach (acetylcholine)
  YFP fluorescence quenching (percent quench): −36.89%
30 uM ach (acetylcholine)
  YFP fluorescence quenching (percent quench): −37.78%
100 uM ach (acetylcholine)
  YFP fluorescence quenching (percent quench): −25.67%
300 uM ach (acetylcholine)
  YFP fluorescence quenching (percent quench): −18.94%
1 mM ach (acetylcholine)
  YFP fluorescence quenching (percent quench): 16.38%
3 mM ach (acetylcholine)
  YFP fluorescence quenching (percent quench): 45.71%
First column
  YFP fluorescence quenching using Varenicline, 3 nM var: −0.225
  YFP fluorescence quenching using Varenicline, 30 nM var: 1.269
  YFP fluorescence quenching using Varenicline, 300 nM var: 6.84
  YFP fluorescence quenching using Varenicline, 500 nM var: 8.717
  YFP fluorescence quenching using Varenicline, 1 uM var: 5.635
Second column
  YFP fluorescence quenching using Varenicline, 3 nM var: −1.954
  YFP fluorescence quenching using Varenicline, 30 nM var: 5.972
  YFP fluorescence quenching using Varenicline, 300 nM var: 5.943
  YFP fluorescence quenching using Varenicline, 500 nM var: 6.41
  YFP fluorescence quenching using Varenicline, 1 uM var: 7.068
